± gives the standard deviation of the averaged measurements.
B1: library; numbered along this chain (parent)
chain: MNIQIGELAKRTACPVVTIRFYEQEGLLPPPGRSRGNFRLYGEEHVERLQFIRHCRSLDMPLSDVRTLLSYRKRPDQDCGEVNMLLDEHIRQVESRIGALLELKHHLVELREACSGARPAQSCGILQGLSDCVCDTRGTTAHPSD

What was measured:
[1] = variants of: B1; assay: sfGFP reporter fluorescence (15 h) (µM FITC); higher = higher leak; conditions: library round: Round 1; ligand: none
Protocol: (§1)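 Cell-free biosensing: 1 µL Echo-assembled CFE reactions with linear PbrR variant templates (5 nM) and pPbrR-sfGFP reporter, with 1 µM Pb, 30 µM Zn or no ligand; endpoint sfGFP fluorescence after 15 h at 30 °C calibrated as µM FITC. Round 1 ML-predicted PbrR mutants; 3 biological replicates.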

[2] = variants of: B1; assay: sfGFP reporter fluorescence (15 h) (µM FITC); higher = stronger transcriptional activation; conditions: library round: Round 1
Protocol: as §1

Row | Variant | sfGFP reporter fluorescence [1] | sfGFP reporter fluorescence ([2]; ligand: 1 µM Pb) | sfGFP reporter fluorescence ([2]; ligand: 30 µM Zn)
1 | P61N E94A | 0.0757 ± 0.0021 | 0.15 ± 0.0094 | 0.977 ± 0.065
2 | R33A G36L | 0.0634 ± 0.0035 | 0.0567 ± 0.0051 | 0.0604 ± 0.00092
3 | D64T D131C | 0.143 ± 0.0074 | 0.359 ± 0.033 | 1.51 ± 0.07
4 | M60L D64K L107C E109L G128I D131T | 2.84 ± 0.3 | 2.23 ± 0.17 | 2.37 ± 0.23
5 | D64A E94R | 0.0816 ± 0.0051 | 0.179 ± 0.013 | 1.44 ± 0.18
6 | P61N R96A | 0.0665 ± 0.00092 | 0.0876 ± 0.0059 | 0.238 ± 0.024
7 | D64K N83S I90N | 0.0679 ± 0.0014 | 0.223 ± 0.065 | 0.737 ± 0.02
8 | V16N L58A | 0.0597 ± 0.0018 | 0.0608 ± 0.00073 | 0.0591 ± 0.0024
9 | D64L K104V L107R | 0.0627 ± 0.0017 | 0.0614 ± 0.0042 | 0.0593 ± 0.0044
10 | D64K V108E | 0.0746 ± 0.0013 | 0.165 ± 0.015 | 1.42 ± 0.1
11 | M60L P61N D64K L107C G128M | 2.5 ± 0.028 | 2.54 ± 0.22 | 2.51 ± 0.45
12 | L62I K104V | 0.072 ± 0.0011 | 0.109 ± 0.0031 | 0.417 ± 0.022
13 | V16C V46C | 0.0646 ± 0.0017 | 0.066 ± 0.0025 | 0.0632 ± 0.0019
14 | V16C V46Y | 0.0651 ± 0.0018 | 0.07452 ± 0.00021 | 0.0793 ± 0.0053
15 | D64K K104E | 0.0882 ± 0.0047 | 0.31 ± 0.058 | 1.65 ± 0.039
16 | D64T E112I D135A | 0.08637 ± 0.00056 | 0.197 ± 0.029 | 1.56 ± 0.079
17 | P61D D64K L107C G128M | 1.99 ± 0.49 | 2.06 ± 0.23 | 2.38 ± 0.037
18 | P30A V46R | 0.0618 ± 0.0011 | 0.0716 ± 0.0014 | 0.298 ± 0.024
19 | N83T C134V | 0.0588 ± 0.0022 | 0.0731 ± 0.0054 | 0.168 ± 0.016
20 | N83T C134M | 0.05754 ± 0.00037 | 0.0707 ± 0.0046 | 0.19 ± 0.022
21 | N83T C134L | 0.0568 ± 0.0011 | 0.0739 ± 0.003 | 0.159 ± 0.025
22 | N83T C134A | 0.0602 ± 0.0013 | 0.0716 ± 0.0016 | 0.162 ± 0.014
23 | R39F V46C | 0.065 ± 0.0013 | 0.0632 ± 0.0031 | 0.0655 ± 0.0018

Row | Variant | sfGFP reporter fluorescence [1] | sfGFP reporter fluorescence ([2]; ligand: 1 µM Pb) | sfGFP reporter fluorescence ([2]; ligand: 30 µM Zn)
24 | N83S E94D K104A | 0.05986 ± 0.00042 | 0.0734 ± 0.0052 | 0.422 ± 0.014
25 | N83R L107H | 0.0594 ± 0.00064 | 0.0632 ± 0.0012 | 0.0662 ± 0.0035
26 | D64A R111L | 0.061 ± 0.0013 | 0.105 ± 0.01 | 0.743 ± 0.022
27 | P61N D135A | 0.0764 ± 0.0016 | 0.152 ± 0.014 | 0.791 ± 0.096
28 | P61N D135R | 0.0732 ± 0.00085 | 0.164 ± 0.0087 | 0.708 ± 0.075
29 | N83M D135A | 0.0564 ± 0.0017 | 0.102 ± 0.0031 | 0.07 ± 0.0044
30 | M60L P61D D64K | 0.237 ± 0.022 | 0.609 ± 0.14 | 1.82 ± 0.074
31 | N83S K104V | 0.064 ± 0.0016 | 0.121 ± 0.0056 | 0.405 ± 0.015
32 | N83S V108N | 0.0632 ± 0.0015 | 0.0665 ± 0.0043 | 0.146 ± 0.0045
33 | P61N L68F I90T | 0.0702 ± 0.0011 | 0.0958 ± 0.017 | 0.435 ± 0.044
34 | V16S P61N | 0.074 ± 0.00097 | 0.114 ± 0.021 | 0.612 ± 0.11
35 | V46F K104V | 0.0666 ± 0.0012 | 0.103 ± 0.0038 | 0.475 ± 0.047
36 | C79F G128M | 0.0586 ± 0.0017 | 0.0606 ± 0.0011 | 0.0597 ± 0.00073
37 | G36F M60L P61N | 0.0662 ± 0.0022 | 0.0735 ± 0.0027 | 0.143 ± 0.007
38 | M60L P61N D64K D131C | 0.194 ± 0.0087 | 0.7 ± 0.062 | 1.15 ± 0.26
39 | N83T C123L | 0.0594 ± 0.0013 | 0.0586 ± 0.0016 | 0.059 ± 0.0017
40 | P61N D64T D131C | 0.139 ± 0.011 | 0.315 ± 0.076 | 1.1 ± 0.12
41 | N83F P143K | 0.0612 ± 0.00097 | 0.0718 ± 0.0033 | 0.0627 ± 0.00097
42 | R33M Q127T | 0.0635 ± 0.0027 | 0.0614 ± 0.0047 | 0.0645 ± 0.0022
43 | N83I H89C | 0.0654 ± 0.0027 | 0.0645 ± 0.0035 | 0.0687 ± 0.0029
44 | M60L D131C | 0.0866 ± 0.0039 | 0.248 ± 0.025 | 0.694 ± 0.081
45 | L62I R111L | 0.0639 ± 0.002 | 0.0671 ± 0.0036 | 0.143 ± 0.0089
46 | G32A D131C | 0.0613 ± 0.0022 | 0.0707 ± 0.0055 | 0.147 ± 0.0097

Row | Variant | sfGFP reporter fluorescence [1] | sfGFP reporter fluorescence ([2]; ligand: 1 µM Pb) | sfGFP reporter fluorescence ([2]; ligand: 30 µM Zn)
47 | C55L K104V | 0.0651 ± 0.0015 | 0.0729 ± 0.004 | 0.121 ± 0.0031
48 | P61T I97N K104V | 0.0652 ± 0.0013 | 0.0689 ± 0.0055 | 0.169 ± 0.017
49 | D64K N83T R111L | 0.0651 ± 0.0024 | 0.125 ± 0.0074 | 0.532 ± 0.049
50 | I3M D131C | 0.066 ± 0.0019 | 0.102 ± 0.016 | 0.446 ± 0.039
51 | E43C K104V | 0.065 ± 0.0013 | 0.0922 ± 0.0039 | 0.162 ± 0.011
52 | G36K P61N | 0.0721 ± 0.0043 | 0.112 ± 0.0096 | 0.588 ± 0.075
53 | P61N D64K D131C | 0.119 ± 0.0056 | 0.297 ± 0.065 | 0.868 ± 0.068
54 | L58F M60L P61N | 0.091 ± 0.002 | 0.191 ± 0.051 | 0.61 ± 0.095
55 | N83I D131S | 0.063 ± 0.0013 | 0.0862 ± 0.0031 | 0.0633 ± 0.0013
56 | D64K R111D | 0.0666 ± 0.00092 | 0.164 ± 0.011 | 0.682 ± 0.097
57 | D64K R111L | 0.06487 ± 0.00064 | 0.154 ± 0.013 | 0.898 ± 0.071
58 | D64K R111A | 0.112 ± 0.0044 | 0.382 ± 0.052 | 1.83 ± 0.27
59 | L58F P61N | 0.0663 ± 0.0015 | 0.0952 ± 0.0084 | 0.219 ± 0.02
60 | P61N D64T | 0.345 ± 0.02 | 1.06 ± 0.11 | 3.56 ± 0.13
61 | P61N D64A | 0.0855 ± 0.0012 | 0.183 ± 0.013 | 1.07 ± 0.098
62 | D64S E109H | 0.0794 ± 0.0043 | 0.193 ± 0.0059 | 1 ± 0.12
63 | N83T D131A | 0.0649 ± 0.0029 | 0.0917 ± 0.0025 | 0.169 ± 0.016
64 | M60L D64K D135S | 0.29 ± 0.02 | 0.662 ± 0.097 | 1.93 ± 0.17
65 | M60L D64T L107C | 0.71 ± 0.032 | 0.754 ± 0.061 | 2.46 ± 0.078
66 | P61D D64M R111L | 0.177 ± 0.015 | 0.323 ± 0.09 | 1.43 ± 0.099
67 | P61N D131Y | 0.0734 ± 0.00076 | 0.115 ± 0.0094 | 0.59 ± 0.078
68 | P61N D131C | 0.108 ± 0.0091 | 0.428 ± 0.043 | 1.59 ± 0.16
69 | L28V C134T | 0.06536 ± 0.00042 | 0.0943 ± 0.0028 | 0.646 ± 0.022

Row | Variant | sfGFP reporter fluorescence [1] | sfGFP reporter fluorescence ([2]; ligand: 1 µM Pb) | sfGFP reporter fluorescence ([2]; ligand: 30 µM Zn)
70 | E25V R111M | 0.063 ± 0.0024 | 0.0654 ± 0.0053 | 0.152 ± 0.0061
71 | P61N V108M R111C | 0.0735 ± 0.00085 | 0.0925 ± 0.013 | 0.237 ± 0.0083
72 | D64T G128I D135A | 0.4487 ± 0.003 | 0.801 ± 0.052 | 2.35 ± 0.3
73 | N83S D135A | 0.0628 ± 0.0014 | 0.0731 ± 0.0064 | 0.219 ± 0.026
74 | N83S D135P | 0.0623 ± 0.00073 | 0.0811 ± 0.0058 | 0.145 ± 0.004
75 | P61E D64K D131C | 0.108 ± 0.0035 | 0.243 ± 0.036 | 0.676 ± 0.084
76 | K10A V46T C134T | 0.0627 ± 0.0013 | 0.0699 ± 0.0061 | 0.226 ± 0.021
77 | P29L | 0.0608 ± 0.0015 | 0.0704 ± 0.0041 | 0.213 ± 0.0041
78 | E43Y P61N | 0.0713 ± 0.0038 | 0.139 ± 0.0038 | 0.822 ± 0.12
79 | L58F K104V | 0.0645 ± 0.00097 | 0.0808 ± 0.00092 | 0.182 ± 0.024
80 | R20W R111L | 0.06866 ± 0.00056 | 0.0663 ± 0.0045 | 0.0727 ± 0.0011
81 | D64A D135R | 0.0876 ± 0.00097 | 0.18 ± 0.034 | 1.55 ± 0.021
82 | P61D D64K L107C | 1.58 ± 0.082 | 1.54 ± 0.35 | 2.2 ± 0.1
83 | P61N D64K N83T | 0.0684 ± 0.00076 | 0.232 ± 0.045 | 0.635 ± 0.034
84 | N83S P143W | 0.0614 ± 0.0019 | 0.102 ± 0.012 | 0.556 ± 0.027
85 | D64T N83T R111I | 0.0783 ± 0.0017 | 0.156 ± 0.014 | 1.12 ± 0.13
86 | M60L D64K K104T | 0.5087 ± 0.0029 | 1.14 ± 0.23 | 2.22 ± 0.29
87 | P61N D64K K104V L107C G128M | 0.854 ± 0.022 | 1.37 ± 0.39 | 2.24 ± 0.098
88 | P61N D64K K104V L107C G128I | 0.427 ± 0.0081 | 0.961 ± 0.14 | 1.77 ± 0.27
89 | P61N E112V | 0.0641 ± 0.0026 | 0.0906 ± 0.0036 | 0.387 ± 0.058
